The source of these data is article PMC10235760 (Frontiers in Immunology, 2023).

Bounds are passed on as bounds.

The target in this experiment is T1, SARS-CoV-2 receptor binding domain, omicron subvariant BA5 (RBDBA5) (SARS-CoV-2, Omicron BA.5, strain).
T1 construct: also called Omicron BA5 RBD
As to the kind of experiment: SPR; Biacore T200, […]; 25°C, HBS-EP+ ([…], pH 7.4); 1:1 binding model; triplicate. To be noted: both partners purified.

B1: antibody 10-40 with triple mutations (S32H heavy, R100bI heavy, Q53F light) (antibody, V domains shown)
VH: QLQLQESGPGLVKPSETLSLTCTVSGGSISSHNFYWGWIRQPPGKGLEWIASITYSGRTFYNPSLKSRVAISVDTSKNQFSLKLSSVTAADTAVYYCARTFPSYYDISGYHYLNYGMDVWGQGTTVTVSS
VL: NFMLTQPHSMSESPGKTVTISCTRSSGSIASNYVQWYQQRPGSSPTTVIYEDNFRPSGVPDRFSGSIDSSSNSASLTISGLKTEDEADYYCQSYDSSSWVFGGGTKLTVL
notes: also called combination of S32HH, R100bIH, and Q53FL
Turning to B1, the “fold improvement of binding affinity over antibody 10-40” value is > 5000 fold.
